In patent US20070160576A1, “IL-17A/F heterologous polypeptides and therapeutic uses thereof” (Genentech, Inc., priority 2001, published 2007):
“Also recorded” adds a separate entry of the source.

How the values were obtained:
TK-10 cells = assay: IL-8 and IL-6 production in TK-10 cells (ELISA of conditioned media); type: cell-based, human; details: for IL-8 production: IL-8 ELISA
Experimental: Fractions were tested by incubation with TK-10 cells for 24 hours (0.033 microliters fraction/ml of cell culture media). Conditioned media was then collected and IL-8 and IL-6 concentration measurements were performed on each fraction by ELISA. […] Gels, blots, amino acid sequence and activity assays were run on this fraction (FIG. 3). Alternatively, fraction 31 and the remaining volume of fraction 32, from the HiLoad S Sepharose run were pooled and dialyzed against Buffer A for eight hours using a 10 kD cutoff membrane and passed through a 0.2 micron filter. […] Fractions 26-43 were assayed and protein concentrations were determined by amino acid analysis. Pure IL-17A/F was identified in fractions 31-33 as a single protein with apparent molecular mass of 30-35 kD. The concentrations of fractions 31, 32 and 33 were 0.258, 0.359 and 0.291 mg/ml respectively.
IL-17A/F, IL-17 and IL-17F were incubated with TK-10 cells at the indicated concentrations for 24 hours.
TK-10 conditioned media was collected and analyzed by IL-8 ELISA and IL-6 ELISA.

[1] = target: human IL-17 receptor (IL-17R, PRO1) (Homo sapiens, UniProt Q96F46); assay: Receptor/ligand interaction screening assay (immunoadhesin); type: binding
Experimental: In general, the assay is performed as follows. A PRO polypeptide of the present invention suspected of being a ligand for a receptor is expressed as a fusion protein containing the Fc domain of human IgG (an immunoadhesin). Receptor-ligand binding is detected by allowing interaction of the immunoadhesin polypeptide with cells (e.g. Cos cells) expressing candidate PRO polypeptide receptors and visualization of bound immunoadhesin with fluorescent reagents directed toward the Fc fusion domain and examination by microscope. Cells expressing candidate receptors are produced by transient transfection, in parallel, of defined subsets of a library of cDNA expression vectors encoding PRO polypeptides that may function as receptor molecules. Cells are then incubated for 1 hour in the presence of the PRO polypeptide immunoadhesin being tested for possible receptor binding. The cells are then washed and fixed with paraformaldehyde. The cells are then incubated with fluorescent conjugated antibody directed against the Fc portion of the PRO polypeptide immunoadhesin (e.g. FITC conjugated goat anti-human-Fc antibody). The cells are then washed again and examined by microscope. A positive interaction is judged by the presence of fluorescent labeling of cells transfected with cDNA encoding a particular PRO polypeptide receptor or pool of receptors and an absence of similar fluorescent labeling of similarly prepared cells that have been transfected with other cDNA or pools of cDNA. If a defined pool of cDNA expression vectors is judged to be positive for interaction with a PRO polypeptide immunoadhesin, the individual cDNA species that comprise the pool are tested individually (the pool is “broken down”) to determine the specific cDNA that encodes a receptor able to interact with the PRO polypeptide immunoadhesin.
In another embodiment of this assay, an epitope-tagged potential ligand PRO polypeptide (e.g., 8 histidine “His” tag) is allowed to interact with a panel of potential receptor PRO polypeptide molecules that have been expressed as fusions with the Fc domain of human IgG (immunoadhesins). Following a 1 hour co-incubation with the epitope tagged PRO polypeptide, the candidate receptors are each immunoprecipitated with protein A beads and the beads are washed. Potential ligand interaction is determined by Western blot analysis of the immunoprecipitated complexes with antibody directed towards the epitope tag. An interaction is judged to occur if a band of the anticipated molecular weight of the epitope tagged protein is observed in the Western blot analysis with a candidate receptor, but is not observed to occur with the other members of the panel of potential receptors.

IL-17R [2] = target: T1, IL-17R (Homo sapiens, UniProt Q96F46); assay: SPR (BIAcore) binding measurements
T1 construct: the extracellular domains (ECDs) of either of the two receptors IL-17R (designated PRO1) and IL-17RH1 (PRO5801)
Experimental: (§1) The kinetics and affinity of IL-17, IL-17E (PRO10272), or IL-17F (PRO20110) binding to IL-17R or IL-17RH1 (PRO5801) were determined by SPR measurements on a Pharmacia BIAcore 1000 instrument (Phamacia Biosensor, Piscataway N.J.). IL-17 ligand or receptor was immobilized onto a flow cell of a CM5 sensor chip via random coupling to amino groups, N-hydroxysuccinimide chemistry, by using a protocol developed by the manufacturer. An immobilization level of about 500 resonance units (RU) was obtained for IL-17R, IL-17RH1, and IL-17F, whereas IL-17 and IL-17E immobilization levels were 1200 and 1500 RU, respectively. A strong signal was obtained for IL-17R binding to immobilized IL-17. […] After blocking unreacted sites with ethanolamine, binding measurements were performed using a flow rate of 25 ┘L/min. Sensorgrams-were obtained for a series of six, two-fold serially diluted protein solutions. The highest concentration used was 1000 or 500 nM protein and the solutions were prepared in the running buffer, PBS containing 0.05% Tween-20. The sensor chip surface was regenerated between binding cycles by injection of a 25 ┘L aliquot of 0.1 M acetic acid, 0.2 M NaCl, pH 3 to elute non-covalent bound protein. Sensorgrams were evaluated according to a 1:1 binding model by non-linear regression analysis using software supplied by the manufacturer. In separate experiments to measure competition between IL-17 variants for binding receptors, a fixed concentration of receptor was incubated with a varied concentration of IL-17 protein followed by injection of this mixture onto a flow cell having immobilized IL-17 protein. The amount of bound receptor was determined from the resonance signal obtained after completion of the association phase.

IL-17RH1 (PRO5801) = target: T2, IL-17RH1 (PRO5801) (Homo sapiens, UniProt Q9NRM6); assay: SPR (BIAcore) binding measurements
T2 construct: the extracellular domains (ECDs) of either of the two receptors IL-17R (designated PRO1) and IL-17RH1 (PRO5801)
T2 sequence (Q9NRM6 18-292 limits assumed): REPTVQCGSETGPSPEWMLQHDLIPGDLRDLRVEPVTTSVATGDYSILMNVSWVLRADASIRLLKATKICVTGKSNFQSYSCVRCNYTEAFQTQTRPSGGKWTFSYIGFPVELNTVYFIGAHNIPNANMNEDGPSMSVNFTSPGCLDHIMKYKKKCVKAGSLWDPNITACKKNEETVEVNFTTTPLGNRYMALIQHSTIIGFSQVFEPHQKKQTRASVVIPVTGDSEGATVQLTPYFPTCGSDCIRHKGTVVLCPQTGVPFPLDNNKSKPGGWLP
Experimental: as §1

IL-17R [3] = target: T1, IL-17R; assay: SPR competition for receptor binding to immobilized IL-17; details: IL-17R 500 nM; IL-17F at 2 ┘M
Experimental: as §1, with “The sensor chip surface was regenerated between binding cycles by injection of a 25 ┘L aliquot of 0.1 M acetic acid, 0.2 M NaCl, pH 3 to elute non-covalent bound protein.” left out, “In separate experiments to measure competition between IL-17 variants for binding receptors, a fixed concentration of receptor was incubated with a varied concentration of IL-17 protein followed by injection of this mixture onto a flow cell having immobilized IL-17 protein.” left out, “phase. […]” for “phase.”

Substance	IL-8 production (TK-10 cells; TK-10 cells, 24 hours)	binding to human IL-17 receptor (IL-17R, PRO1) [1]	SPR signal for binding to immobilized IL-17R (IL-17R [2]; IL-17R immobilized)	SPR binding to IL-17R (in words) (IL-17R [2]; IL-17R in solution, cytokine immobilized)	Koff × 10^4 (IL-17R [2]; immobilized IL-17, ligand IL-17R, value is Koff × 10^4) [s^−1]	Kon × 10^−5 (IL-17R [2]; immobilized IL-17, ligand IL-17R, value is Kon × 10^−5) [M^−1 s^−1]	SPR binding to IL-17RH1 (in words) (IL-17RH1 (PRO5801))	competition for binding of IL-17R to immobilized IL-17 (IL-17R [3])	difference in activity (potency) from IL-17 and IL-17F (TK-10 cells; IL-8 induction in TK-10 cells, greater activity than IL-17F)	IL-6 production (TK-10 cells; TK-10 cells, 24 hours, IL-6 ELISA)	IL-8 production (TK-10 cells; TK-10 cells, 24 hours, listed as Fraction 38)
IL-17: human IL-17 cytokine, SEQ ID NO:3	production of IL-8	binds to	weak signal	strong signal; also recorded: modest binding affinity	6.7	0.093	no binding was observed	efficiently block binding	–	–	–
IL-17A/F: novel human cytokine, covalent heterodimer of one IL-17 chain and one IL-17F chain	robustly induced IL-8 production; also recorded: induce IL-8 production; also recorded: potent IL-8 inducing activity	–	–	–	–	–	–	–	roughly an order of magnitude	induced production of IL-6	robust activity
